Results published in PMC5384453, “A multi-functional PEGylated gold(III) compound: potent anti-cancer properties and self-assembly into nanostructures for drug co-delivery” (Chemical Science, 2016).

Legend:
[1] = tested on: A2780cis xenografts; assay: In vivo inhibition of tumor growth in nude mice bearing A2780cis xenograft
Procedure: To further investigate the ability of 1 to treat drug-resistant tumors that should be of great interest in clinical application, in vivo antitumor experiments on nude mice bearing cisplatin-resistant A2780cis xenografts with 1 were conducted. […]
every 2 days for 24 days. The control group received equal volume of PBS only.
During the treatment period, the tumor volume and body weight of the nude mice were measured per two days. The tumor volume was calculated by the equation:
Volume (mm3) = l×w2/2, where l and w were the length and width of the tumor. At the end of the treatment, the nude mice were sacrificed and the tumor weight was […]
H&E staining and immunohistochemical (IHC) analysis of mice tissues. […] The expression of p53, Ki67, VEGFR2 and TUNEL was determined by IHC methods as reported previously. […]
animal study. […] During the treatment period, the tumor volume and body weight of the nude mice were measured […]
once every 2–3 days. The tumor volume was calculated by the equation: Volume (mm3) = l×w2/2, where l and w were the length and width of the tumor. At the end of the treatment, the nude mice were sacrificed and the tumor weight was measured. […]
of apoptosis of HCT116 cells was investigated by CellEvent Caspase-3/7 Green ReadyProbes Reagent (30 µL), similar to the procedure of the experiments on gold(III) […]

[2] = In vivo biodistribution by ICP-MS in nude mice bearing HCT116 xenografts; details: single-dose i.v., 24 h post-treatment
Source text: Significant pulmonary hemorrhage in the alveoli and a thickening of alveolar walls were found. Also, apoptotic hepatocytes and swollen renal epithelial cells were found, leading to subsequent shrinkage of kidney tubules. […] The lower systemic toxicity of 1 can be explained by the lower accumulation of 1 in the organs of mice treated at its effective dosage, as compared to that of 3 and Au1a (Fig. S23 ^†). […] This can be attributable to the nanostructures of 1, which may lead to in vivo tumor accumulation by the EPR effect.[55] […]
point of tumor growth inhibition study, the mice treated with complex 1, 3 and Au1a, respectively, were sacrificed and tissues including liver, spleen, lung, kidney and heart were harvested. The tissues were digested with 10% HCl in concentrated HNO3 (0.1 g of tissue/1 mL). The solution mixture was heated at 60 °C for 15 h, and then diluted 50 times by ultra-pure water for ICP-MS analysis.
Determination of in vivo biodistribution of complex 1, 3 and Au1a by ICP-MS.
Nude mice bearing HCT116 xenografts were treated with 1 (13 mg/kg), or equal molar amount of Au1a (2 mg/kg) or 3 (2 mg/kg) through intravenous injection. After 24 h of the injection, the mice were sacrificed and tissues from tumor, liver, spleen, lung, kidney and heart were harvested. The tissues were digested with 10% HCl in concentrated HNO3 (0.1 g of tissue/1 mL). […]

## [Au(TPP–COO–PEG5000–OCH3)]Cl [Compound 1]
[1]; 4 mg kg^–1, intravenous injections every 2–3 days for 13 days, n = 5
  reduction of tumor volume: Over 52%
[1]; A2780cis xenograft nude mice, 4 mg kg^–1 i.v., 13 days
  mouse death / body weight: no mouse death or significant loss in body weight
[2]; equal molar amount (1 13 mg kg^–1, 3 2 mg kg^–1)
  higher accumulation in tumor compared to mice treated with 3: 2.0 fold
[2]; equal molar amount (1 13 mg kg^–1, Au1a 2 mg kg^–1)
  higher accumulation in tumor compared to mice treated with Au1a: 3.3 fold
